Positions count from the first letter of the chain named. Several values for one entry are separate records, joined by “and”; a condition that tells them apart may be missing. Identical values can stand only once.
B1: BMS3h-193-12 (other)
VL: DIQMTQSPSSLSASVGDRVTITCRASQTIERRLNWYQQKPGKAPKLLIYLASRLQSGVPSRFSGSGSGTDFTLTISSLQPEDFATYYCHQYESPPLTFGQGTKVEIKR
notes: dAb, single VK
B2: BMS3h-193-27 (other)
VL: B1 VL with E30G
notes: dAb, single VK
B3: BMS3h-193-11 (other)
VL: B1 VL with A43D
notes: dAb, single VK
B4: BMS3h-193-26 (other)
VL: B1 VL with T28P
notes: dAb, single VK
B5: BMS3h-193-18 (other)
VL: B1 VL with E30G, T69S
notes: dAb, single VK
B6: BMS3h-193-7 (other)
VL: B1 VL with M4I, A43D
notes: dAb, single VK
B7: BMS3h-193-10 (other)
VL: B1 VL with T5S, S10T, T97M
notes: dAb, single VK
B8: BMS3h-193-19 (other)
VL: B1 VL with D70E
notes: dAb, single VK
B9: BMS3h-193-25 (other)
VL: B1 VL with K45R, S52T
notes: dAb, single VK
B10: BMS3h-193-30 (other)
VL: B1 VL with T28S
notes: dAb, single VK
B11: BMS3h-198-10 (other)
VH: EVQLLESGGGLVQPGGSLRLSCAASGSTIAGYEMWWVRQAPGKGLERVSAISGSGGSTYYADSVKGRFTISRDDSKNTLYLQMNSLRAEDTAVYYCAKDPYSFDYWGQGTLVTVSS
notes: dAb, single VH
B12: BMS3h-198-37 (other)
VH: B11 VH with S27F, I29F, M34L, W106R
notes: dAb, single VH
B13: BMS3h-198-22 (other)
VH: B11 VH with S27F, I29F, D99E, F103Y, Q108H
notes: dAb, single VH
B14: BMS3h-198-14 (other)
VH: B11 VH with S27F, I29F, V37F, S75T, G107R
notes: dAb, single VH
B15: BMS3h-198-11 (other)
VH: B11 VH with S27F, I29F, K98R, T113S
notes: dAb, single VH
B16: BMS3h-198-38 (other)
VH: B11 VH with S27F, I29F, M34L, K98R
notes: dAb, single VH
B17: BMS3h-198-19 (other)
VH: B11 VH with S27F, I29F, M34L, K98R, W106R
notes: dAb, single VH
B18: BMS3h-198-33 (other)
VH: B11 VH with S27F, I29F, D99E, F103Y
notes: dAb, single VH
B19: BMS3h-198-9 (other)
VH: B11 VH with S27F, I29F, D99E
notes: dAb, single VH
B20: BMS3h-198-31 (other)
VH: B11 VH with S27F, I29F, D74N, Y95H, D99E, F103Y
notes: dAb, single VH
B21: BMS3h-198-34 (other)
VH: B11 VH with S27F, I29F, Y105N
notes: dAb, single VH
B22: BMS3h-198-32 (other)
VH: B11 VH with S27F, I29F, V37F, D74N, Y105N
notes: dAb, single VH
B23: BMS3h-198-17 (other)
VH: B11 VH with S27F, I29F, K98R
notes: dAb, single VH
B24: BMS3h-193-25 (other)
VL: B1 VL with K45R, S52T
notes: domain antibody (dAb): single human V kappa domain
B25: BMS3h-202-5 (other)
VH: EVQLLESGGGLVQPGGSLRLSCAASGFTFPTAEMLWVRQAPGKGLEWVSSISASGGSTYYADSVKGRFTISRDNSKNTLYLQMNSLRAEDTAVYYCAKEPVSYVATFDYWGQGTLVTVSS
notes: domain antibody (dAb): single human VH domain
B26: BMS3h-43-1 (other)
VH: EVQLLESGGGLVQPGGSLRLSCTASGFTFNMYEMSWVRQAPGKGLEWVSGISRRGFTTYYADSVKGRFTISRDNSKNTLYLQMNSLRAEDTAVYYCAKEPITYDLRYARFDYSGQGTLVTVSS
notes: as for B25
B27: BMS3h-43-3 (other)
VH: B26 VH with S75F, L105M, S113G
notes: as for B25
B28: BMS3h-37-2 (other)
VH: EVQLLESGGGLVQPGGSLRLSCAASGFTFEWYEMQWVRRAPGKGLEWVSAISGDGYRTYYADSVKGRFTISRDNSKNTLYLQMNSLRAEDTAVYYCAKELGYFDYWGRGTLVTVSS
notes: as for B25
B29: BMS3h-37-9 (other)
VH: B28 VH with A23V, R39Q, K43N, V48I
notes: as for B25
B30: BMS3h-198-1 (other)
VH: B11 VH with K98R
notes: as for B25
B31: BMS3h-38-3 (other)
VH: EVQLLASGGGLVQPGGSLRLSCAASGFTFEEEEMIWVRQAPGKGLEWISAISGSGGSTYYADSVKGRFTISRDNSKNTLYLQMNSLRAEDTAVYYCGKEPFRFDYWGQGTLVTVSS
notes: as for B25
B32: BMS3h-38-1 (other)
VH: B31 VH with A6G, I48V, G97S
notes: as for B25
B33: BMS3h-37-5 (other)
VH: B28 VH with R39Q, V48I, W106R, G107V, R108Q
notes: as for B25
B34: BMS3h-41-1 (other)
VH: EVQLLESGEGLVQPGGSLRLSCAASGFTFTEHEMIWVRQAPGKGLEWVSSISGNGANTYYADSVKGRFTISRDNSKNTLYLQMNSLRPEDTAVYYCAKEPLRFDYWGQGTLVTVSS
notes: as for B25
B35: BMS3h-38-2 (other)
VH: B31 VH with I48V, F103Y
notes: as for B25
B36: BMS3h-56-7 (other)
VH: EVQLLESGGGLVQPGGSLRLSCAASGFTFRDYEMWWVRQAPGKGLERVSAINPQGTRTYYADSVKGRFTISRDNSKNTLYLQMNSLRAEDTSVYHCAKPPFIFGDWGPGTLVTVSS
notes: as for B25
B37: BMS3h-56-9 (other)
VH: B36 VH with K65M, S92A, H95Y, P99L, I102M, G104D, W106R, P108Q
notes: as for B25
B38: BMS3h-131-2 (other)
VL: DIQMTQSPSSLSASVGDRVTITCRADSSILWALAWYQQKPGKAPKLLIESSSGLQSGVPSRFSGSGSGTDFTLTISSLQPEDFATYYCVQNAVWPGTFGQGTKVEIKR
notes: as for B24
B39: BMS3h-193-29 (other)
VL: B1 VL with S52T
B40: BMS3h-198-1 (other)
VH: B11 VH with K98R
B41: BMS3h-198-2 (other)
VH: B11 VH with L4P, S27F, I29F, V48I, K98R
B42: BMS3h-198-5 (other)
VH: B11 VH with S27F, I29F, Y95H, D99E, F103Y
B43: BMS3h-198-28 (other)
VH: B11 VH with S27F, I29F, V37F, Y105N
B44: BMS3h-198-19 (other)
VH: B11 VH with S27F, I29F, M34L, K98R, W106R
B45: BMS3h-198-24 (other)
VH: B11 VH with S27F, I29F, D99E, Y105S

What follows are binders tested against T1, human CD40 (BMS, CY24FEB06-01) (human, UniProt P25942 21-193) (assay: ELISA RBA, competition with IZ-CD40L;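 also: Neutravidin-coated 384-well plate, dAb–human CD40 complex bound for 2 h at room temperature, absorbance read at 450 nm after HCl stop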).
T1 construct: Soluble reagent of the bead and ELISA RBA; It is detected with an anti-human IgG (Fc) mAb, so it may be a CD40-Ig fusion
T1 sequence (P25942 21-193 limits assumed): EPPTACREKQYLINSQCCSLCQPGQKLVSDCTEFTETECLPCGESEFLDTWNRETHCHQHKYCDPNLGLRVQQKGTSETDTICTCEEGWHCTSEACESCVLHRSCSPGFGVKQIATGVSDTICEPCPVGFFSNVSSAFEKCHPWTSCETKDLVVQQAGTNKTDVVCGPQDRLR
Method: Clear walled High Bind, 384-well plates (Corning, UK) were coated with 25 μl of 1 μg/ml Neutravidin in 0.2 M carbonate-bicarbonate buffer, pH 9.4 overnight at 4° C. The following day, assay plates were washed with 0.1% (v/v) Tween PBS buffer, blocked with 1% (w/v) BSA in PBS for 1 hour at room temperature and washed again. […] Following washing of the assay plate, the dAb:human CD40 complex was incubated in the assay plate at room temperature for 2 hours with gentle agitation. […] Absorbance signal was measured using a SpectraMax® M5e plate reader (Molecular Devices) at 450 nm following neutralization with 1M HCl solution.

| EC50 | Binder |
| --- | --- |
| 200 nM | B1 |
| 100 nM | B2 |
| 300 nM | B3 |
| 100 nM | B4 |
| 100 nM | B5 |
| 300 nM | B6 |
| 200 nM | B7 |
| 100 nM | B8 |
| 140 nM | B9 |
| 290 nM and 116 nM | B10 |
| 35 nM | B11 |
| 15.1 nM | B12 |
| 10 nM | B13 |
| 9 nM | B14 |
| 20 nM | B15 |
| 7.2 nM | B16 |
| 7.9 nM | B17 |
| 8.7 nM | B18 |
| 20 nM | B19 |
| 6.1 nM | B20 |
| 32.6 nM | B21 |
| 24.7 nM | B22 |
| 20 nM | B23 |

What follows are binders tested against T2, biotinylated human CD40 (BMS) (human, UniProt P25942 21-193, limits assumed, biotinylated (sites not given)) (assay: BIAcore SPR, immobilised biotinylated human CD40, 1:1 fit;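 also: binding kinetics of dAbs flowed over the CD40 surface at 25 °C in HBS-EP, 300 s dissociation, signal corrected by reference cell and buffer blank, global Langmuir fit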).
T2 construct: Ligand immobilised on the streptavidin BIAcore chip
T2 sequence (P25942 21-193 limits assumed): as above

| Kd | koff | kon | Binder |
| --- | --- | --- | --- |
| 81 nM | 0.037 s⁻¹ | 460000 M⁻¹ s⁻¹ | B24 |
| 300 nM | 0.0013 s⁻¹ | 4400 M⁻¹ s⁻¹ | B25 |
| 140 nM | 0.00063 s⁻¹ | 4400 M⁻¹ s⁻¹ | B26 |
| 19 nM | 0.00059 s⁻¹ | 31000 M⁻¹ s⁻¹ | B27 |
| 4 nM | 0.00041 s⁻¹ | 100000 M⁻¹ s⁻¹ | B28 |
| 12 nM | 0.00018 s⁻¹ | 15000 M⁻¹ s⁻¹ | B29 |
| 13 nM | 0.00018 s⁻¹ | 15000 M⁻¹ s⁻¹ | B30 |
| 5.5 nM | 0.00041 s⁻¹ | 75000 M⁻¹ s⁻¹ | B31 |
| 33 nM | 0.0011 s⁻¹ | 32000 M⁻¹ s⁻¹ | B32 |
| 5.5 nM | 0.00022 s⁻¹ | 39000 M⁻¹ s⁻¹ | B33 |
| 11 nM | 0.00056 s⁻¹ | 51000 M⁻¹ s⁻¹ | B34 |
| 12 nM | 0.00075 s⁻¹ | 61000 M⁻¹ s⁻¹ | B35 |
| 3.5 nM | 0.00047 s⁻¹ | 130000 M⁻¹ s⁻¹ | B36 |
| 2.6 nM | 0.00039 s⁻¹ | 150000 M⁻¹ s⁻¹ | B37 |
| 21 nM | 0.0017 s⁻¹ | 79000 M⁻¹ s⁻¹ | B38 |

Each binder was assayed against human CD40 (human, UniProt P25942 21-277) (assay: cell-based or functional assay).
Chain of human CD40 (P25942 21-277 limits assumed): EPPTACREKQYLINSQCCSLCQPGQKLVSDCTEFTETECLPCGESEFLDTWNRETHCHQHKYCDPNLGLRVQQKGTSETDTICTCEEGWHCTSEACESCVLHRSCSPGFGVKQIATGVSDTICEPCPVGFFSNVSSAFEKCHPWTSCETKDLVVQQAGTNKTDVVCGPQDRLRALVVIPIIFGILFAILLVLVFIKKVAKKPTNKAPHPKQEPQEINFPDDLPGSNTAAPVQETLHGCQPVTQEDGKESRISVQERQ

| hIZCD40L-driven Human B Cell Proliferation EC50 | Binder |
| --- | --- |
| 1380 nM | B39 |
| 64 nM | B40 |
| 207 nM | B41 |
| 9 nM | B42 |
| 20 nM | B43 |
| 19 nM | B44 |
| 34 nM | B45 |

Source: patent US20200199244A1 (published 2020)
